We go through one molecule from patent publication US20230124669A1.

Positions count from the first letter of the chain named.

The target of assay [1] is neonatal Fc receptor FcRn. Nature of the assay: FcRn binding of bispecific antibody at acidic pH; method not stated.
The target of assay [2] is neonatal Fc receptor FcRn. As to the kind of experiment: FcRn binding of bispecific antibody; method not stated.

Sequence of neonatal Fc receptor FcRn (P55899 24-297, chain 1 of 2): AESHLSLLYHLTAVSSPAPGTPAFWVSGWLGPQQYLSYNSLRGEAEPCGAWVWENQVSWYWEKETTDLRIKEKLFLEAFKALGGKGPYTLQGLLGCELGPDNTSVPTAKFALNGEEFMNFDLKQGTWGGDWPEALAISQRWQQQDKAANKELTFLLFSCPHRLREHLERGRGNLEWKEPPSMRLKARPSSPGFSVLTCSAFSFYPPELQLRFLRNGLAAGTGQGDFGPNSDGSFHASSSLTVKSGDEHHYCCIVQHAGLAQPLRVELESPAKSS
Sequence of neonatal Fc receptor FcRn (P61769 21-119, chain 2 of 2, further chain): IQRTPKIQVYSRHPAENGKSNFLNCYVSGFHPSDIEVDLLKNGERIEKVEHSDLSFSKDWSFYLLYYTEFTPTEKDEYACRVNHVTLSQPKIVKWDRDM

B1: TY21489 (bispecific antibody, part only; not given: rest of both heavy chains, lights, not shown: a dimerising Fc or GST)
heavy, part 1: GQPREPQVYTLPPSRKKLTKNQVKLTCLVKGFYPSDIAVEWESNGQPENNYKTTPPVLDCDGSFFLYSKLTVDKSRWQQGNVFSCSVMHEALHNHYTQKSLSLSPGK
heavy, part 2: B1 heavy, part 1 with L11D, K16D, K17E, K24S, K30D, N50C, C60S, K99D
In the case of B1, in assay [1], the FcRn binding at acidic pH/nM worked out at 53.7 nM. For the same molecule, the pH dependent FcRn binding/% in assay [2] came to 0%.
